Sequences and labels used below:
B1: ZBTB22 (parent)
chain: RPFDCPVCNKKFKMKHHLTEHMKT
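Also: lentivirally expressed fusions sorted by FACS into six bins by GFP to DsRed ratio, PSI derived from sequencing read proportions per bin multiplied by bin number.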

The variants in the series derive from B1. The experiment in a line: protein stability index of a GFP-peptide fusion (GPS, HEK-293T) (PSI 1-6); higher = more stable. The following applies: c terminus: a fixed tail appended.
Consider RPFDCPVCNKKFKMKHHLQEHMKT [T19Q], for which the protein stability index was 2.33.
On to RPFDCPVCNKKFKMKHHLNEHMKT [T19N], for which the protein stability index amounted to 2.88.
The result for RPFDCPVCNKKFKMKHHLYEHMKT [T19Y] reads 2.41; that for RPFDCPVCNKKFKMKHHLHEHMKT [T19H], 2.8; that for RPFDCPVCNKKFKMKHHLREHMKT [T19R], 3.34.
The result for RPFDCPVCNKKFKMKHHLKEHMKT [T19K] reads 2.48; that for RPFDCPVCNKKFKMKHHLIEHMKT [T19I], 3.07; that for RPFDCPVCNKKFKMKHHLSEHMKT [T19S], 2.35.
The result for RPFDCPVCNKKFKMKHHLAEHMKT [T19A] reads 2.89.
For the variant RPFDCPVCNKKFKMKHHLGEHMKT [T19G], the protein stability index amounted to 3.17.
The result for RPFDCPVCNKKFKMKHHLVEHMKT [T19V] reads 3; that for RPFDCPVCNKKFKMKHHLFEHMKT [T19F], 2.28; that for RPFDCPVCNKKFKMKHHLLEHMKT [T19L], 2.8.
The result for RPFDCPVCNKKFKMKHHLMEHMKT [T19M] reads 3.18.
RPFDCPVCNKKFKMKHHLCEHMKT [T19C]: the protein stability index turned out to be 4.25.
For RPFDCPVCNKKFKMKHHLDEHMKT [T19D], the protein stability index was 3.19.
As for RPFDCPVCNKKFKMKHHLWEHMKT [T19W], the protein stability index came out at 2.02.
The result for RPFDCPVCNKKFKMKHHLEEHMKT [T19E] reads 3.39.
The result for RPFDCPVCNKKFKMKHHLPEHMKT [T19P] reads 2.48; that for RPFDCPVCNKKFKMKHHLTVHMKT [E20V], 2.36.
As for RPFDCPVCNKKFKMKHHLTQHMKT [E20Q], the protein stability index was 2.8.
The result for RPFDCPVCNKKFKMKHHLTTHMKT [E20T] reads 2.31.
The result for RPFDCPVCNKKFKMKHHLTKHMKT [E20K] reads 3.1.
In the case of RPFDCPVCNKKFKMKHHLTDHMKT [E20D] it was 2.99.
Regarding RPFDCPVCNKKFKMKHHLTNHMKT [E20N], the protein stability index is 3.
Take RPFDCPVCNKKFKMKHHLTSHMKT [E20S]: the protein stability index was 1.93.
The result for RPFDCPVCNKKFKMKHHLTCHMKT [E20C] reads 2.83; that for RPFDCPVCNKKFKMKHHLTFHMKT [E20F], 2.21.
In the case of RPFDCPVCNKKFKMKHHLTYHMKT [E20Y] it was 1.85; in that of RPFDCPVCNKKFKMKHHLTMHMKT [E20M], 2.62.
In the case of RPFDCPVCNKKFKMKHHLTWHMKT [E20W] it was 2.08; in that of RPFDCPVCNKKFKMKHHLTIHMKT [E20I], 2.21.
RPFDCPVCNKKFKMKHHLTRHMKT [E20R]: the protein stability index is 3.45.
In the case of RPFDCPVCNKKFKMKHHLTAHMKT [E20A] it was 2.78.
In the case of RPFDCPVCNKKFKMKHHLTPHMKT [E20P] it was 2.11; in that of RPFDCPVCNKKFKMKHHLTHHMKT [E20H], 2.44.
In the case of RPFDCPVCNKKFKMKHHLTLHMKT [E20L] it was 1.83; in that of RPFDCPVCNKKFKMKHHLTGHMKT [E20G], 2.73.
In the case of RPFDCPVCNKKFKMKRHLTEHMKT [H16R], the protein stability index came out at 2.29.
In the case of RPFDCPVCNKKFKMKYHLTEHMKT [H16Y] it was 2.28; in that of RPFDCPVCNKKFKMKLHLTEHMKT [H16L], 2.56; in that of RPFDCPVCNKKFKMKWHLTEHMKT [H16W], 2.27.
In the case of RPFDCPVCNKKFKMKNHLTEHMKT [H16N] it was 2.71; in that of RPFDCPVCNKKFKMKMHLTEHMKT [H16M], 2.71.
In the case of RPFDCPVCNKKFKMKQHLTEHMKT [H16Q] it was 2.7.
On to RPFDCPVCNKKFKMKAHLTEHMKT [H16A], for which the protein stability index was 2.59.
In the case of RPFDCPVCNKKFKMKGHLTEHMKT [H16G] it was 2.11; in that of RPFDCPVCNKKFKMKVHLTEHMKT [H16V], 2.08.
In the case of RPFDCPVCNKKFKMKDHLTEHMKT [H16D] it was 2.56; in that of RPFDCPVCNKKFKMKIHLTEHMKT [H16I], 2.08; in that of RPFDCPVCNKKFKMKKHLTEHMKT [H16K], 2.55.
In the case of RPFDCPVCNKKFKMKTHLTEHMKT [H16T] it was 2.39; in that of RPFDCPVCNKKFKMKPHLTEHMKT [H16P], 2.25.
As to RPFDCPVCNKKFKMKEHLTEHMKT [H16E], the protein stability index was determined as 3.27.
The result for RPFDCPVCNKKFKMKSHLTEHMKT [H16S] reads 2.83; that for RPFDCPVCNKKFKMKCHLTEHMKT [H16C], 2.91; that for RPFDCPVCNKKFKMKFHLTEHMKT [H16F], 1.9.
In the case of RPFDCPVCNKKFKMKHHLTEHMTT [K23T] it was 2.38; in that of RPFDCPVCNKKFKMKHHLTEHMMT [K23M], 2.11.
For RPFDCPVCNKKFKMKHHLTEHMYT [K23Y], the protein stability index worked out at 2.17.
Consider RPFDCPVCNKKFKMKHHLTEHMLT [K23L], for which the protein stability index was 2.38.
In the case of RPFDCPVCNKKFKMKHHLTEHMPT [K23P] it was 2.48.
In the case of RPFDCPVCNKKFKMKHHLTEHMQT [K23Q] it was 3.34; in that of RPFDCPVCNKKFKMKHHLTEHMDT [K23D], 2.61; in that of RPFDCPVCNKKFKMKHHLTEHMHT [K23H], 3.06.
The result for RPFDCPVCNKKFKMKHHLTEHMVT [K23V] reads 2.37; that for RPFDCPVCNKKFKMKHHLTEHMRT [K23R], 2.26; that for RPFDCPVCNKKFKMKHHLTEHMFT [K23F], 1.95.
RPFDCPVCNKKFKMKHHLTEHMST [K23S]: the protein stability index came out at 2.4.
The result for RPFDCPVCNKKFKMKHHLTEHMCT [K23C] reads 4.19; that for RPFDCPVCNKKFKMKHHLTEHMGT [K23G], 2.99.
In the case of RPFDCPVCNKKFKMKHHLTEHMIT [K23I] it was 2.38; in that of RPFDCPVCNKKFKMKHHLTEHMAT [K23A], 2.3.
The result for RPFDCPVCNKKFKMKHHLTEHMNT [K23N] reads 3.29; that for RPFDCPVCNKKFKMKHHLTEHMET [K23E], 2.39; that for RPFDCPVCNKKFKMKHHLTEHMWT [K23W], 1.98.
For RPFDCPVCNKKFKMKHHCTEHMKT [L18C], the protein stability index amounted to 4.01.
Regarding RPFDCPVCNKKFKMKHHKTEHMKT [L18K], the protein stability index was 2.78.
In the case of RPFDCPVCNKKFKMKHHATEHMKT [L18A] it was 2.93.
On to RPFDCPVCNKKFKMKHHYTEHMKT [L18Y], for which the protein stability index was determined as 2.25.
In the case of RPFDCPVCNKKFKMKHHPTEHMKT [L18P] it was 2.37.
In the case of RPFDCPVCNKKFKMKHHRTEHMKT [L18R] it was 2.89; in that of RPFDCPVCNKKFKMKHHFTEHMKT [L18F], 2.7.
The result for RPFDCPVCNKKFKMKHHVTEHMKT [L18V] reads 3.5; that for RPFDCPVCNKKFKMKHHWTEHMKT [L18W], 2.59; that for RPFDCPVCNKKFKMKHHETEHMKT [L18E], 2.78.
Turning to RPFDCPVCNKKFKMKHHDTEHMKT [L18D], the protein stability index is 2.39.
The result for RPFDCPVCNKKFKMKHHTTEHMKT [L18T] reads 2.67; that for RPFDCPVCNKKFKMKHHGTEHMKT [L18G], 3.36.
In the case of RPFDCPVCNKKFKMKHHITEHMKT [L18I] it was 2.1; in that of RPFDCPVCNKKFKMKHHMTEHMKT [L18M], 2.19; in that of RPFDCPVCNKKFKMKHHHTEHMKT [L18H], 3.08.
In the case of RPFDCPVCNKKFKMKHHSTEHMKT [L18S] it was 2.44; in that of RPFDCPVCNKKFKMKHHQTEHMKT [L18Q], 2.58.

Source of the values: the supplement of paper PMC10567573.
